The supplement of paper PMC9170038

Columns and labels:
[1] = test system: MS2 coat protein; test: apparent KD of MS2 coat protein; designed switch direction (-1 OFF switch, 1 ON switch): 1; higher = weaker reporter binding; conditions: Eterna round: R98
Protocol: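 RNA-MaP: designed FMN/MS2 RNA switches (84 nt design region) are transcribed on-chip within common flanks and titrated with SNAP-549-labelled MS2 coat protein (about 1-3000 nM) in 100 mM Tris pH 7.5, 80 mM KCl, 4 mM MgCl2, without or with 200 uM FMN. Median apparent KD per design; activation ratio = KD,OFF / KD,ON.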

[2] = test system: MS2 coat protein; test: apparent KD of MS2 coat protein, switch OFF state (with FMN for OFF switches, without FMN for ON switches); designed switch direction (-1 OFF switch, 1 ON switch): 1; higher = weaker reporter binding; conditions: FMN input: 0 or 200 uM; Eterna round: R93 (includes R88 designs)
Summary of the method: (§1)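 Designed RNA switches, transcribed on-chip from Illumina sequencing clusters, were titrated with SNAP-549-labelled MS2 coat protein from 0.7 or 1.5 nM to 3 µM in twofold steps. The solution was 100 mM Tris-HCl pH 7.5, 80 mM KCl, 4 mM MgCl2, with constant ligand or without it. Apparent KD is the median over each design's normalised cluster binding-curve fits.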

[3] = test system: MS2 coat protein; test: apparent KD of MS2 coat protein, switch ON state; designed switch direction (-1 OFF switch, 1 ON switch): 1; higher = weaker reporter binding; conditions: FMN input: 0 or 200 uM; Eterna round: R93 (includes R88 designs)
Summary of the method: as §1

Sequence | apparent KD of MS2 coat protein ([1]; input ligand: FMN 200 uM) | apparent KD of MS2 coat protein ([1]; input ligand: none) | apparent KD of MS2 coat protein [2] | apparent KD of MS2 coat protein [3]
UCUGCUAUCGCAGGAUAUUACAUGGGAAAGAAUACAUGAGGAUCACCCAUGUAAAAGAUCAUAAAUAAGAAGGGCGAUAGCAGA [Lame State 7 - Jieux - Same State NG 2] | 116 nM | 1530 nM |  | 
AGAUCUAGAAGGUAGGAUAUGUGAAAAAAUACAUGAGGAUCACCCAUGUGAUGAAUAAAAAGAAAAUAGAAGGACCAUCUAGAUC [Cross swing 2] |  |  | 40.7 nM | 16.5 nM
CAGCGCUGUCGAGAGGAUAUGCGGUGAAGGACAUGAGGAUCACCCAUGUAAGCGAUAGUAUUACGGUAGAAGGCUCUACAGCUGC [Isdianbia] |  |  | 114 nM | 41.8 nM
UAAGUACAUGAGGAUCACCCAUGUUGGAAUAGAGCAGGAUAUGUGCAGAGGGAAAUAAAAACAGAAGGGCUAAGAA [Same State #3] |  |  | 33 nM | 25.9 nM
AACGAACAUGAGGAUCACCCAUGUUCCAGCAGUUGAGGAUAUGUGGGUGAAAAUAGCACGGCAGAAGGCGAGUGUA [SameState1 Malc#22] |  |  | 82.1 nM | 79.8 nM
GGAGACCUCACAGGAUAUGCUGGACUUUGUCCAGCAGAAGGGUGAAAACAUGAGGAUCACCCAUGUAUGGUCUCCAAAUUUAAU [Denovo 57] | 30.4 nM | 632 nM |  | 
AAGAAACAUGAGGAUCACCCAUGUAAGAUAAACACAGGAUAUGCAAAAGAAAGAAAGAAAGCAGAAGGGUGAAGAA [Mat - Same State 1 - Tesla mod - 50] |  |  | 42.3 nM | 15.7 nM
AGGAAACAUGAGGAUCACCCAUGUAAAAAUAUGGGAGGAUAUACGAAAAAAAAAAAAAAAGUAGAAGGCCUAAAAG [Garnet 10] |  |  | 231 nM | 101 nM
UGGAGACAUGAGGAUCACCCAUGUGAGAAGAGGCGAGGAUAUCGAAAGAAAGAAGAGAAACGAGAAGGCGCGAGUU [salish99-SS1-035] |  |  | 41.6 nM | 27.2 nM
GAGAGACAUGAGGAUCACCCAUGUAGGAUUAUGGGAGGAUAUACAAAGACGAGAGUCAGAGUAGAAGGCCUAGGAG [salish99-ss1-139] |  |  | 75.6 nM | 25.4 nM
GAGGACAUAGUAUAGGAUAUAUGAAUAGUUACAUGAGGAUCACCCAUGUGCAUUUAUAUGCGAACAUAGAAGGGUGGUAGUUAUC [SameState2 Malc#31] |  |  | 75.1 nM | 122 nM
UUACAGUGCGGGUAGGAUAUGUAGGGUGGUACAUGAGGAUCACCCAUGUAUCCACCCUUCGACCGGCAGAAGGGCCUGUCACUAC [Atarzale] |  |  | 12.8 nM | 12 nM
AAUCCACAUGAGGAUCACCCAUGUCAGGAAAUGACAGGAUAUAGCGAAAAAAAAAAAAAGCUAGAAGGGUCUAAUU [SameState1-cac2] |  |  | 107 nM | 31.3 nM
AAAAAACAUGAGGAUCACCCAUGUGGGAAUAUGGAAGGAUAUACAAAGACGAAAGUCAAAGUAGAAGGUCUAAAAG [76%, Meechl 2] |  |  | 41.9 nM | 39.6 nM
GUAGAACAUGAGGAUCACCCAUGUGAAGACGCAUGAGGAUAUAUAAGUAAAUAGCAUAAGAUAGAAGGCAUGAUAA [JR_SS001_Sub1702] |  |  | 113 nM | 76 nM
GGGAGGAAGAGAGAGGAUAUCCAAAGGAAAACAUGAGGAUCACCCAUGUAAAAGGUAGGAAAUUGGGAGAAGGCUCAAGAGAAUG [salish99-ss2-055] |  |  | 28.3 nM | 24.1 nM
GUAGAACAUGAGGAUCACCCAUGUGAGUACAGUGUAGGAUAUGGGCAUGAGAAGUCAUUUCUAGAAGGGCAAAUAA [Raatbiin] |  |  | 112 nM | 207 nM
AUUACAUGAGGAUCACCCAUGUACAGAACGUUUCAUUAAAGUGAGGAUAUACGAAAUUUAAAAGCGUAGAAGGCACUGGGUACA [SameState #43 NG3] | 24.2 nM | 27.8 nM |  | 
GAUAGACAUGAGGAUCACCCAUGUAGAAUUAUGGGAGGAUAUACAAAGACGAGAGUCAGAGUAGAAGGCCUAGGAA [salish99-ss1-156] |  |  | 64.6 nM | 24.5 nM
